Measurements: paper PMC2783173

Tests used:
Test in all cases: split reporter
[1] = target: HIV-1 Nef (SF2) 2PA (SH3-binding motif mutant), YFP BiFC fusions (HIV-1 (SF2 allele)) (UniProt P03407)
[2] = target: HIV-1 Nef (SF2) D123A, YFP BiFC fusions (HIV-1 (SF2 allele))
[3] = target: HIV-1 Nef (SF2) D123N, YFP BiFC fusions (HIV-1 (SF2 allele))
[4] = target: HIV-1 Nef (SF2) D123V, YFP BiFC fusions (HIV-1 (SF2 allele))
[5] = target: HIV-1 Nef (SF2) F121A, YFP BiFC fusions (HIV-1 (SF2 allele))
[6] = target: HIV-1 Nef (SF2) I109D/L112D/Y115D/F121D, YFP BiFC fusions (HIV-1 (SF2 allele))
[7] = target: HIV-1 Nef (SF2) L112A, YFP BiFC fusions (HIV-1 (SF2 allele))
[8] = target: HIV-1 Nef (SF2) L112D, YFP BiFC fusions (HIV-1 (SF2 allele))
[9] = target: HIV-1 Nef (SF2) L112D/Y115D, YFP BiFC fusions (HIV-1 (SF2 allele))
[10] = target: HIV-1 Nef (SF2) R105E, YFP BiFC fusions (HIV-1 (SF2 allele))
[11] = target: HIV-1 Nef (SF2) R105E/R106E, YFP BiFC fusions (HIV-1 (SF2 allele))
[12] = target: HIV-1 Nef (SF2) Y115D, YFP BiFC fusions (HIV-1 (SF2 allele))

## HIV-1 Nef (SF2) 2PA (SH3-binding motif mutant), YFP BiFC fusions (from UniProt P03407) (natural protein)
[1]
  % decrease in BiFC relative to WT: 0%

## HIV-1 Nef (SF2) D123A, YFP BiFC fusions (natural protein)
[2]
  % decrease in BiFC relative to WT: 69.6%

## HIV-1 Nef (SF2) D123N, YFP BiFC fusions (natural protein)
[3]
  % decrease in BiFC relative to WT: 97.1%

## HIV-1 Nef (SF2) D123V, YFP BiFC fusions (natural protein)
[4]
  % decrease in BiFC relative to WT: 52.9%

## HIV-1 Nef (SF2) F121A, YFP BiFC fusions (natural protein)
[5]
  % decrease in BiFC relative to WT: 33%

## HIV-1 Nef (SF2) I109D/L112D/Y115D/F121D, YFP BiFC fusions (natural protein)
[6]
  % decrease in BiFC relative to WT: 99.9%

## HIV-1 Nef (SF2) L112A, YFP BiFC fusions (natural protein)
[7]
  % decrease in BiFC relative to WT: 52.8%

## HIV-1 Nef (SF2) L112D, YFP BiFC fusions (natural protein)
[8]
  % decrease in BiFC relative to WT: 47.5%

## HIV-1 Nef (SF2) L112D/Y115D, YFP BiFC fusions (natural protein)
[9]
  % decrease in BiFC relative to WT: 86.7%

## HIV-1 Nef (SF2) R105E, YFP BiFC fusions (natural protein)
[10]
  % decrease in BiFC relative to WT: 49.9%

## HIV-1 Nef (SF2) R105E/R106E, YFP BiFC fusions (natural protein)
[11]
  % decrease in BiFC relative to WT: 71.1%

## HIV-1 Nef (SF2) Y115D, YFP BiFC fusions (natural protein)
[12]
  % decrease in BiFC relative to WT: 59.1%
